Assay: yeast display, Sf9 membrane polyspecificity reagent, FACS + sequencing; frameworks hold sequencing errors
How it was run: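 Using colony PCR, genes from sorted yeast display clones were amplified, then sequenced on MiSeq at 2 × 250 and filtered by CDR length. The clones had been stained with 10% biotinylated, detergent-solubilized Sf9 membrane reagent for 1 hour at 4 °C and sorted by FACS into low and high (top ~1%) gates on anti-HA and streptavidin fluorescence. Polyreactivity labels come from the gate of origin.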

| Sequence | polyreactivity (PSR sort gate) |
| --- | --- |
| EEELVESGGGLVQAGGSLRLSCAASGIIFGYYAMGWYRQAPGKERELVAAITRSGSSTYYADSVKGRFTISRDNAKNTVYLQMNSLKPEDTAVVSCAADNFYQAYGYWGQGTQVTVSS | low polyreactivity |
| EEELVESGGGLVQAGGSLRLSCAASGSIFQYNAMGWYRQAPGKDRELVAVISWSGDTYYADSVKGRFTISRDNAKNTVYLQMNSLKPEDTAVYYCNAVQYTFTSEYGYWGQGTQVTVSS | low polyreactivity |
| EEELVESGGGLVQAGGSSLRLSCAASGFIFVSNAMGWYRQAPGKERELVASIRWSDGSTFDADSVKGRFTNSRDNAKNTVYLQMNSLKPEDTAVYYCNAVYEHRRVGWVTIDYGYWGQGTQVTVSA | low polyreactivity |
| EEQLVESGGGLVQPGGSLRLSCAASVYIYSRYRMGWYRQAPGKGREFVAAISGGSSPNYADCVKGRFTISRDNSKNTVYLQMNSLRAEDTAVYYCAAYKIDSDPRVYWGQGTQVTVSS | low polyreactivity |
| EVQLVESGGGLVHAGGSLRLICAASGFTFTGYTMGWYRQAPGKERELVATISGSGGNTYYADSVKGRFTISRDNAKNTVYLQINSVKPEDTAVYYCARLRSGPRVLYYYWGQGTQVTVSS | low polyreactivity |
| EVQLVESGGGLVQAGGSLRLSCAASGFTFGVYARGWYRQAPGKERELVAAITWGDGSTYYADSVKGRFTISRDNAKNTVYLQMNSLKPEDTAVYYCNAVTRRHKYYYWGQGTQVTVSS | high polyreactivity |
| EVQLVESGGGLVQAGGSLRLSCAASGFTFSYNAMGWYRQAPGKERELVAAIDWGGGSTYADSVKGRFTISRDNAKNTVYLQMNSLKPEDTAVYYCAAYIPSSGRNPEIGVEYDYWGQGTQVTVSS | low polyreactivity |
| EVQLVESGGGLVQAGGSLRLSCAAYGSTFSTYAMGWYRQAPGKERELVAAISFGGGSTYADSVKGRFTISRDNAKNTVYLQMNSLKPEDTAVYYCNTDLYLYGWYPRDVQQYAGGDYWGQGTQVTVSS | low polyreactivity |
| EVQLVESGGGLVQPGGSLRLSCAASGYIYRRYRMGWYRQAPGKGREFVAAISGGSSTNYADSVTGRFTISRDNSKNTVFLQMNSLRAEDTAVYYCAAYKIDSYPRVYWGQGTQVTVSS | low polyreactivity |
| FVQAGGSLRLSCAASGFIFGVYDMGWYRQAPGKERELVAAIDSVGSTYYADSVKGRFTISRDNAKNTVYLQMNSLNPEDTAVYYCAKDGSYQAYGYWGQGTQVTVSS | low polyreactivity |
| HDQHVESAGGLVQAGGSLRLSCAASGFILRWYAMGWYRQAPGKERELVAAISWSGGSTYYADSVKGRFTISRDNAKNTVYLQMNSEKPEVTAVYYCNAVNYRNKYDYWGQGTQVTVSS | high polyreactivity |
| HEQLQESGGGLVQAVGSLRLSCAASGHISRSSTMGWYRQAPGKERELVTAITRGTNTNYADSVKGRFTISRDNAKNSEYLQMNSLKPEDTAVYYCAAYGVLKPSRGDAVFHRYWGQGTQVTVSR | low polyreactivity |
| HEQLVESGGGLVQAGGSLRLICAASGRIFPRYAMGRYRQAPGKEMELVAAITKRDGSTYYADSVKGRFTISRDNAKNTVYLQMNSLKPEDSAVYYCATRRLYSKSWYYYWGQGTQVTVSS | high polyreactivity |
| HFQLVESGGRLVQAGGSIRLSCAASGRIFRPNAMGWYRQAPRKERQLVAAISYSGATTYYADSVKGRFTISRDNEKNTVYLQMNSLKPEDTAVYYCAACGTSAKEFGYWGQGTQVTVSS | low polyreactivity |
| HVELVEAGGGVVQAGGSLRLSCAASGRIFRYYVMGWYRPAPGKEREFVASISGRGASTYYADSVKGRFTISRDNAKNTVYIKRNSLKPEDTAVYYCNADVWLLSYVPEYDYWGQGTQVTVSS | low polyreactivity |
| HVHLVESGGGLVQAGGSLRLSCAASARTFWRYAMGRKRQAPGKERELVAAISVSGGTTYYADAVKGRFTISRDNAQNTVYLQMISLKPEATAVYYCAARYWHSYGYWGQGTQVTVSS | high polyreactivity |
| HVKLQESGDGLVQAGGSLRLSSAPSGTIYSDYGMGGSRQAPGKERELLAGISDGCNTNYTDSVKGRFTISRDNAHRVSADEQPETGGYRGVLLRGSERWLLFYVYWGQGTQVTVSS | high polyreactivity |
